Several values for one entry are separate records, joined by “and”; a condition that tells them apart may be missing. Identical values can stand only once.
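Also: lentiviral eGFP-IRES-mCherry reporter pool sorted by FACS 96 h post-transduction, gated on mCherry-high cells, Illumina read counts normalized per million, median across four biological replicates.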

ZNF28, sequence (chain, as listed by the source): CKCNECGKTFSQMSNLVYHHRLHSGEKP

In the data set the test system is HEK293T. Nature of the data set: median enrichment of reporter reads in eGFP-reduced (low/intermediate) vs eGFP-high sorted cells (eGFP-extension fusion abundance) (ratio); higher = stronger loss of eGFP-fusion protein abundance (more destabilising extension).
As for “YVLCCIPFSFLQMTMNFKLWGQCCNIFTFSNSQNLKNVKLCLVCFS [INPP4B]”, the median enrichment is 5.86.

On to YVLCYNGVIVPKCPH [OR51F2], for which the median enrichment came out at 5.24. For YVLIGLPAGCDSKA [CBX2] the value was 14; for YVLILPSH [HSPA4L], 10.7; for YVLRWNSLGEHLMSQPIQLPHNPAEGRVRGE [WDR62], 7.76. Regarding YVNV [CLEC2B], the median enrichment was determined as 0.896. For YVPTK [ZNF334] the value was 0.591. Then YVPVSPFIAAFPWGRQ [CXCR5], with 6.43 and 2.95. Take YVRTVG [UFD1]: the median enrichment was 3.02.

As to “YVTTPRSSAFKTKRDWGSGEGEEEQEEKKYSELLQVTLIKNLL [NR5A2]”, the median enrichment was 8.46. Turning to YVYLFLQEI [PI15], the median enrichment was found to be 4.25. For YWAPSL [MSN] the value was 2.04.

With YWCGK [NME7], the median enrichment came out at 2.52.

As for YWELLWQVPPE [C1orf115], the median enrichment worked out at 3.92. Consider YWENPLLVHLKTPNSTIICQEIKRTTP [PCP4], for which the median enrichment came to 13.6. For YWVFGLTGARMDLQRQL [GPR149] the value was 5.42; for “YWWLVVMNSYSVASSLPASHLPSTSQLLPSLTEANIFI [NTRK3]”, 23.2.

Take YYCTELP [ADAM18]: the median enrichment was found to be 4.78.

With YYHMFSWYVN [ABHD10], the median enrichment stood at 17.6.

On to “YYSKIKYINIYIYIYFRKKKKTNKQKNPTPVDTLIFPNEDFIYGMEWKKKQLF [BMP2]”, for which the median enrichment was 49. Regarding “YYVIRNLVAWPYLAAREPGRYVAGRLGMCPVKNSVDSLIKKKRKKDTMGTLYLVFILCMYRSSKKLHRISVTLYASGKQDWEL [CFAP61]”, the median enrichment is 41.5. Then YYY [Tyr03], with 1.14. Then YYYLQMKLTYTDLSSLMKKIRCYPIK [RBM11], with 13.

For YYYY [Tyr04], the median enrichment was determined as 4.17. On to YYYYY [Tyr05], for which the median enrichment turned out to be 22.4.

As for YYYYYY [Tyr06], the median enrichment was 2.81. Then YYYYYYY [Tyr07], with 3.18. For YYYYYYYY [Tyr08], the median enrichment came to 5.87.

Regarding YYYYYYYYY [Tyr09], the median enrichment came out at 4.03. Then YYYYYYYYYY [Tyr10], with 6.9.

Take ZNF28: the median enrichment was determined as 1.64.

(Values after the supplement of paper PMC11502859.)
